# Test results: patent US20180237497A1 (CANCER RESEARCH TECHNOLOGY, published 2018)
# Residue numbers refer to the chain shown, from its start. Names and notes keep the numbering of the source.
# B1: human IgG1 Fc-domain 11^AB5 fusion protein (Fc fusion)
# chain: NEHDDCQVTNPSTGHLFDLSSLSGRAGFTAAYAKGWGVYMSICGENENCPPGVGACFGQTRISVGKANKRLRYVDQVLQLVYKDGSPCPSKSGLSYKSVISFVCRPEAGPTNRPMLISLDKQTCTLFFSWHTPLACEQAT
# notes: Made in HEK293T; also called Fc-domain II^AB5; pHLSec-AB5-hIgG1; not shown: human IgG1 Fc
# B2: domain 11^AB3 P1597H (receptor)
# chain: MKSNEHDDCQVTNPSTGHLFDLSSLSGRAGFTAAYSKSGVVYMSICGENENCPPGVGACFGQTRISVGKANKRLRYVDQVLQLVYKDGSHCPSKSGLSYKSVISFVCRPEAGPTNRPMLISLDKQTCTLFFSWHTPLACEQATECSV
# notes: See m5; also called AB3 + 62B (FG-P1597H)
# B3: domain 11^AB3 P1597H HI^23D (receptor)
# chain: B2 chain with D123H, K124F, T126S
# notes: See m5; Only koff printed
# B4: domain 11^AB5 HI^23D (receptor)
# chain: B2 chain with S36A, S38G, G39W, V40G, H90P, D123H, K124F, T126S
# notes: See m5; Only koff printed; other cells np (no protein)
# B5: domain 11^AB3 Q1569R (receptor)
# chain: B2 chain with Q62R, H90P
# notes: See m5; also called AB3 + 73E (CD-Q1569R)
# B6: domain 11^AB5 S1602H (receptor)
# chain: B2 chain with S36A, S38G, G39W, V40G, H90P, S95H
# notes: See m5
# B7: domain 11^AB5 G1603K (receptor)
# chain: B2 chain with S36A, S38G, G39W, V40G, H90P, G96K
# notes: See m5
# B8: domain 11^AB5 Q1569R P1597K S1602H G1603K (receptor)
# chain: B2 chain with S36A, S38G, G39W, V40G, Q62R, H90K, S95H, G96K
# notes: as for B4
# B9: domain 11^AB5 P1597H (receptor)
# chain: B2 chain with S36A, S38G, G39W, V40G
# notes: See m5
# B10: domain 11^AB5 Q1569R P1597H S1602H G1603K (receptor)
# chain: B2 chain with S36A, S38G, G39W, V40G, Q62R, S95H, G96K
# notes: as for B4
# B11: domain 11^AB5 Q1569R (receptor)
# chain: B2 chain with S36A, S38G, G39W, V40G, Q62R, H90P
# notes: See m5
# Columns and labels:
# pro-IGF2^1-156 = target: T1, pro-IGF2^1-156 (UniProt P01344 25-180); test: SPR kinetic, Fc fusion captured by anti-human IgG, pH 7.4
# T1 construct: range 1-156
# T1 sequence (P01344 25-180 limits assumed): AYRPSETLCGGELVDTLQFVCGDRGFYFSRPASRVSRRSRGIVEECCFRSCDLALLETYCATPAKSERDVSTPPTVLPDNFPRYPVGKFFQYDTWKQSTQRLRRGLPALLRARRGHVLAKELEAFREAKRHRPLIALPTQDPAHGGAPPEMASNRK
# Protocol: (§1) SPR analysis of the interaction of recombinant IGF1 and IGF2 forms with Fc-domain 11 proteins immobilised by antibody capture (CM5 chip containing monoclonal mouse anti-human IgG antibody immobilised by amine coupling). Measurements were carried out at 25° C. in HBS-EP buffer (pH 7.4).
# (§2) Final kinetic analysis of mutants by SPR was conducted using a Biacore T200 biosensor at 25° C. in either HBS-EP (10 mM HEPES pH 7.4, 150 mM NaCl, 3 mM EDTA, and 0.005% (v/v) surfactant P20) or MES-EP (20 mM MES pH 6.5, 150 mM NaCl, 3 mM EDTA, and 0.005% (v/v) surfactant P20) at a flow-rate of 40 μL min⁻¹. […] For the analysis of the Fc-domain 11^AB5 interaction, approximately 50 RU of a biotinylated IGF2:biotinylated ubiquitin mixture (1:8 proportion) was immobilized on the CM5-streptavidin chip. This interaction was also analysed by immobilizing the Fc-domain 11^AB5 and Fc-domain 11^AB5-RHH (or Fc-domain 11^I1572A as control) by Human Antibody Capture (monoclonal mouse anti-human IgG antibody immobilised on a CM5 chip by amine coupling, GE Healthcare) with and without human IgG1 Fc fragment (Bethyl Laboratories, UK) in the control flow cell. […] T200 BiaEvaluation software (GE Healthcare) was used to fit the resulting curves according to a 1:1 binding model. Steady state affinities were determined using the kinetic data, taking the response average at 5 seconds before injection end and for 5 seconds average. Thermodynamic data was performed across the temperature range of 10° C. to 30° C., van't Hoff and Erying plots generated and ΔH, −TΔS and ΔG values determined as previously described.
# [1] = target: T2, human IGF2^1-67 (mature insulin-like growth factor 2) (human, UniProt P01344 25-91, biotinylated (site not stated) where immobilised on the chip (Tables 1-4)); test: as above
# T2 construct: mature; also called mature IGF2; biotinylated IGF2
# T2 sequence (P01344 25-91): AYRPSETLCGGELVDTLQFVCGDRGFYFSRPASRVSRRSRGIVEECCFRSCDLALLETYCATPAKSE
# Protocol: as §1, §2
# pro-IGF2^1-104 = pro-IGF2^1-104 (UniProt P01344 25-128); test: as above
# Sequence of pro-IGF2^1-104 (P01344 25-128 limits assumed): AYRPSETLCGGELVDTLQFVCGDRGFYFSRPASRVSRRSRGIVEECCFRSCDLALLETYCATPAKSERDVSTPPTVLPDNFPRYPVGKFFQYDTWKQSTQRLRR
# Protocol: as §1, §2
# [2] = target: T2, human IGF2^1-67 (mature insulin-like …); test: cell-based or functional assay
# [3] = target: T2, human IGF2^1-67 (mature insulin-like …); test: SPR kinetic, biotin-IGF2 on chip, pH 7.4
# Protocol: as §2
# [4] = target: T2, human IGF2^1-67 (mature insulin-like …); test: SPR (Biacore T200, 25 °C, HBS-EP pH 7.4); ΔΔG° = RT ln(KD mutant / KD domain 11^AB3); box AB+FG
# Protocol: (§3) Boxes show the change in the binding free energy contribution, ΔΔGº, for the indicated mutants. The loop/s that contains the mutation/s is indicated in each box. The ΔΔGº values were calculated as ΔΔGº=ΔGº domain 11^mutant−ΔGº domain 11^AB3=RTln(KD domain 11^mutant/KD domain 11^AB3). Additive and non-additive contributions of single point mutations are shown when calculated with a box solid line and dashed line, respectively.
# as §2, with “average.” for “average. Thermodynamic data was performed across the temperature range of 10° C. to 30° C., van't Hoff and Erying plots generated and ΔH, −TΔS and ΔG values determined as previously described.”
# [5] = target: T2, human IGF2^1-67 (mature insulin-like …); test: SPR steady state, biotin-IGF2 on chip
# Protocol: as §2
# [6] = target: T2, human IGF2^1-67 (mature insulin-like …); test: SPR kinetic, biotin-IGF2 on chip
# Protocol: as §2
# [7] = target: T2, human IGF2^1-67 (mature insulin-like …); test: SPR
# From the text: Surface plasmon resonance (SPR) binding analysis of recombinant M6P/IGF2R domain 11 mutants interaction with IGF2. Kon indicates association (on) rate; koff, dissociation (off) rate; RU, response units. Binding to IGF2 assessed with BIAcore T200 using purified biotinylated IGF2 and IGF1 on a streptavidin biosensor chip. Recombinant proteins were expressed either in E. coli and/or P. pastoris. All the mutants in the FG and CD loops are on the domain 11^AB5 background for the AB loop unless otherwise stated. All experiments were carried out at 25° C. in HBS-EP buffer (pH 7.4), were repeated 2-5 times on two independent BIAcore chips. nd=not determined. Data for KD expressed as mean of each experiment, and means of kon and koff are shown.
# as §2, with “model.” for “model. Steady state affinities were determined using the kinetic data, taking the response average at 5 seconds before injection end and for 5 seconds average. Thermodynamic data was performed across the temperature range of 10° C. to 30° C., van't Hoff and Erying plots generated and ΔH, −TΔS and ΔG values determined as previously described.”
# [8] = target: T2, human IGF2^1-67 (mature insulin-like …); test: SPR steady state, biotin-IGF2 on chip, pH 7.4
# Protocol: as §2
# [9] = target: T2, human IGF2^1-67 (mature insulin-like …); test: SPR, biotin-IGF2 on chip, pH 7.4
# [10] = target: T2, human IGF2^1-67 (mature insulin-like …); test: SPR (Biacore T200, 25 °C, HBS-EP pH 7.4); ΔΔG° = RT ln(KD mutant / KD domain 11^AB3); box AB+CD
# Protocol: as §3
# Final kinetic analysis of mutants by SPR was conducted using a Biacore T200 biosensor at 25° C. in either HBS-EP (10 mM HEPES pH 7.4, 150 mM NaCl, 3 mM EDTA, and 0.005% (v/v) surfactant P20) or MES-EP (20 mM MES pH 6.5, 150 mM NaCl, 3 mM EDTA, and 0.005% (v/v) surfactant P20) at a flow-rate of 40 μL min⁻¹. […] This interaction was also analysed by immobilizing the Fc-domain 11^AB5 and Fc-domain 11^AB5-RHH (or Fc-domain 11^I1572A as control) by Human Antibody Capture (monoclonal mouse anti-human IgG antibody immobilised on a CM5 chip by amine coupling, GE Healthcare) with and without human IgG1 Fc fragment (Bethyl Laboratories, UK) in the control flow cell. […] Steady state affinities were determined using the kinetic data, taking the response average at 5 seconds before injection end and for 5 seconds average.
# [11] = target: T2, human IGF2^1-67 (mature insulin-like …); test: SPR steady state, biotin-IGF2 on chip, pH 7.4; remark: listed apart in the source
# Summary of the method: (§4)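 Biotinylated IGF2 captured on streptavidin chip; recombinant M6P/IGF2R domain 11 mutants (E. coli or P. pastoris) injected at 25° C in HBS-EP, pH 7.4, 40 μL min⁻¹. Kinetics fitted to 1:1 model; steady-state KD from 5 s response averages before injection end; 2-5 repeats on two chips.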
# [12] = target: T2, human IGF2^1-67 (mature insulin-like …); test: SPR kinetic, biotin-IGF2 on chip, pH 7.4; remark: listed apart in the source
# Summary of the method: as §4
binder,measurement,setting,value
B1,Kd,pro-IGF2^1-156,0.21 nM
same,koff,pro-IGF2^1-156,0.0009 s⁻¹
same,kon,pro-IGF2^1-156,4.19e+06 M⁻¹ s⁻¹
same,Kd,[1],3.89 nM
same,koff,[1],0.025 s⁻¹
same,kon,[1],6.47e+06 M⁻¹ s⁻¹
same,Kd,pro-IGF2^1-104,0.54 nM
same,koff,pro-IGF2^1-104,0.0069 s⁻¹
same,kon,pro-IGF2^1-104,1.29e+07 M⁻¹ s⁻¹
same,"IC50, cell viability of HT29/219 in serum free conditions",[2],1700 nM
same,"IC50, cell viability of Hep3B in serum free conditions",[2],35500 nM
same,"IC50, cell viability of Huh7 in serum free conditions",[2],1200 nM
B2,Kd,[3],1.23 nM
same,koff,[3],0.013 s⁻¹
same,kon,[3],1.06e+07 M⁻¹ s⁻¹
same,ΔΔG,[4],-1.49 kcal/mol
same,Kd,[5],1.76 nM
same,Kd,[6],1.23 nM
same,koff,[6],0.013 s⁻¹
same,kon,[6],1.06e+07 M⁻¹ s⁻¹
same,fold change of KD against domain 11^AB3,[7],10 fold
same,fold reduction of koff against domain 11^AB3,[7],4 fold
same,Kd,[8],1.76 nM
B3,koff,[9],0.012 s⁻¹
B4,koff,[9],0.012 s⁻¹
B5,Kd,[3],2.3 nM
same,koff,[3],0.031 s⁻¹
same,kon,[3],1.36e+07 M⁻¹ s⁻¹
same,Kd,[5],3.15 nM
same,ΔΔG,[10],-1.12 kcal/mol
same,Kd,[6],2.3 nM
same,koff,[6],0.031 s⁻¹
same,kon,[6],1.36e+07 M⁻¹ s⁻¹
same,Kd,[8],3.15 nM
B6,Kd,[11],5.44 nM
same,ΔΔG,[4],-0.93 kcal/mol
same,fold improvement of affinity,[7],≤ 2 fold
same,Kd,[12],3.19 nM
same,koff,[12],0.0112 s⁻¹
same,kon,[12],3.61e+06 M⁻¹ s⁻¹
B7,Kd,[11],4.54 nM
same,ΔΔG,[4],-1.02 kcal/mol
same,fold improvement of affinity,[7],≤ 2 fold
same,Kd,[12],2.73 nM
same,koff,[12],0.0121 s⁻¹
same,kon,[12],4.66e+06 M⁻¹ s⁻¹
B8,koff,[9],0.008 s⁻¹
B9,Kd,[3],1.9 nM
same,koff,[3],0.007 s⁻¹
same,kon,[3],3.68e+06 M⁻¹ s⁻¹
same,ΔΔG,[4],-1.23 kcal/mol
same,Kd,[8],2.79 nM
B10,koff,[9],0.005 s⁻¹
B11,Kd,[3],2.24 nM
same,koff,[3],0.0175 s⁻¹
same,kon,[3],8.04e+06 M⁻¹ s⁻¹
same,ΔΔG,[10],-1.13 kcal/mol
same,Kd,[8],3.22 nM
